Series [1] addresses T1, MtACK (Methanosarcina thermophila acetate kinase) (Methanosarcina thermophila, UniProt P38502, G331Q/I332M).
T1 construct: gene ackA; recombinant, produced in E. coli Rosetta2 (DE3) pLysS
T1 sequence (P38502 1-408 G331Q/I332M): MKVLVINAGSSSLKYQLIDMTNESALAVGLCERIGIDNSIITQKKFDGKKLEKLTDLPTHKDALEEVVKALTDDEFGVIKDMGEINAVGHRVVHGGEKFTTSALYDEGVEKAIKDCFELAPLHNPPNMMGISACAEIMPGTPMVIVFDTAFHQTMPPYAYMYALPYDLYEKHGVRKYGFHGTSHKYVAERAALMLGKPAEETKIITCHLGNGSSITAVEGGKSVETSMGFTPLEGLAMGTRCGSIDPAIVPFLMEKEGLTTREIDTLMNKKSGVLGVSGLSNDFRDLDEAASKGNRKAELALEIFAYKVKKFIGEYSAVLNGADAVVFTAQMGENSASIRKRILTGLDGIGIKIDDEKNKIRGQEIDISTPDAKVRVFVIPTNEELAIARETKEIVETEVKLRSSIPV
Put plainly: hydroxamate assay ([…] nm). It counts as biochemical. The following applies: acetyl phosphate-forming direction; MgATP, co-substrate acetate; 100 mM Tris pH 7.5, 600 mM hydroxylamine, 37 °C; apparent.

Series [2] deals with T2, EhACK (Entamoeba histolytica acetate kinase) (Entamoeba histolytica, UniProt C4M1C3).
T2 construct: gene EHI_170010; recombinant, produced in E. coli YBS121 delta-ack delta-pta (pREP4)
T2 sequence (C4M1C3 1-392): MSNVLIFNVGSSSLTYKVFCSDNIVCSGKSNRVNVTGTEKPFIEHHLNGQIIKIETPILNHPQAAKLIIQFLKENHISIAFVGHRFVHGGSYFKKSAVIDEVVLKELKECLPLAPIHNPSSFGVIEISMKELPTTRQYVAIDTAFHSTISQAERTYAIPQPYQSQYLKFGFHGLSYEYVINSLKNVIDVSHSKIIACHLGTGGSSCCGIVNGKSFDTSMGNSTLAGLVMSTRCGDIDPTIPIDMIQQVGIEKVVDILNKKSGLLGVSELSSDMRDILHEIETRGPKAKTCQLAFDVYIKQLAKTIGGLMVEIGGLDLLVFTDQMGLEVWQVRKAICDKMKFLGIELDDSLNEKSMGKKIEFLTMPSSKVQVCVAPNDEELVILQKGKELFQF
Put plainly: reverse modified hydroxamate assay ([…] nm). It counts as biochemical. Particulars: read-out: ATP IC50 (mM) / Acetate-forming direction.

Series [3] addresses T3, MtACK (Methanosarcina thermophila acetate kinase) (Methanosarcina thermophila, UniProt P38502).
T3 construct: gene ackA; recombinant, produced in E. coli Rosetta2 (DE3) pLysS
T3 sequence (P38502 1-408): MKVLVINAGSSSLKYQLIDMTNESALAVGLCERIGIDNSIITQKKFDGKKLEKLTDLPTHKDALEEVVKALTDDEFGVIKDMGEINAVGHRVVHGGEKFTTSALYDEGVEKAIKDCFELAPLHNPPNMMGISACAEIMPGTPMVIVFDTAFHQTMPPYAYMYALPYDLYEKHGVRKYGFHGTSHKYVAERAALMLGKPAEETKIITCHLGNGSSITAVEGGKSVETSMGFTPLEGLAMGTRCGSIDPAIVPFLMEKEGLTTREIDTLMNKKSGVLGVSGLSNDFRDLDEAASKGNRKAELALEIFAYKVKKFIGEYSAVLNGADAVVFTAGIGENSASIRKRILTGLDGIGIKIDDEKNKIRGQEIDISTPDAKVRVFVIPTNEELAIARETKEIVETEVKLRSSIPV
Put plainly: hydroxamate assay ([…] nm). Particulars: acetyl phosphate-forming direction; MgATP, co-substrate acetate; 100 mM Tris pH 7.5, 600 mM hydroxylamine, 37 °C; apparent. In kind it is biochemical.

The target in series [4] is T4, EhACK (Entamoeba histolytica acetate kinase) (Entamoeba histolytica, UniProt C4M1C3, M324A/Q323A).
T4 construct: gene EHI_170010
Put plainly: biochemical.

In series [5] the target is T5, EhACK (Entamoeba histolytica acetate kinase) (Entamoeba histolytica, UniProt C4M1C3, D272A/M324I/Q323G/R274A).
T5 construct: gene EHI_170010
Put plainly: biochemical.

Series [6] deals with T6, EhACK (Entamoeba histolytica acetate kinase) (Entamoeba histolytica, UniProt C4M1C3, M324I/Q323G).
T6 construct: gene EHI_170010
Put plainly: biochemical.

For series [7], the target named is T1, MtACK (Methanosarcina thermophila acetate kinase). Put plainly: reverse modified hydroxamate assay ([…] nm). In kind it is biochemical. Particulars: read-out: ATP IC50 (mM) / Acetate-forming direction.
Series [8] deals with T3, MtACK (Methanosarcina thermophila acetate kinase). Put plainly: reverse modified hydroxamate assay ([…] nm). It counts as biochemical. The following applies: read-out: ATP IC50 (mM) / Acetate-forming direction.
Substrate in series [9]: CC(=O)OP(=O)(O)O
Put plainly: purified protein. Particulars: acetate-forming direction, apparent.

Substrate in series [10]: O=P(O)(O)O
Put plainly: purified protein. Particulars: acetate-forming direction, co-substrate acetyl phosphate, 10 mM MgCl2, 100 mM Tris-HCl pH 7.0, 37 °C, apparent, pH 7.0.

Substrate in series [11]: O=P(O)(O)OP(=O)(O)O
Put plainly: purified protein. Particulars: acetyl phosphate-forming direction, co-substrate acetate, 5 mM MgCl2, morpholinoethanesulfonic acid pH 5.5, 600 mM hydroxylamine, 45 °C, apparent.

Substrate in series [12]: CC(=O)O
Put plainly: purified protein. Particulars: acetyl phosphate-forming direction, co-substrate MgATP, 100 mM Tris pH 7.5, 600 mM hydroxylamine, 37 °C, apparent, pH 7.5.

Substrate in series [13]: Nc1ncnc2c1ncn2[C@@H]1O[C@H](COP(=O)(O)OP(=O)(O)O)[C@@H](O)[C@H]1O
Put plainly: purified protein. Particulars: acetate-forming direction, MgADP, co-substrate acetyl phosphate, 100 mM Tris pH 7.5, 37 °C, apparent.

The mark [14] stands for this setting: co-substrate Pi, 10 mM MgCl2, 100 mM Tris-HCl pH 7.0, 37 °C.
Setting [15] is: co-substrate MgADP, 100 mM Tris pH 7.5, 37 °C.

Turning to `Nc1ncnc2c1ncn2[C@@H]1O[C@H](COP(=O)(O)OP(=O)(O)OP(=O)(O)O)[C@@H](O)[C@H]1O` [ATP], the figures for the Michaelis constant (Km) in [1] and in series [3] were 9400 ± 270 µM and 1700 ± 30 µM, respectively. Further, the IC50 stood at 6.1 ± 0.05 mM in [2], 4.8 ± 0.09 mM in series [4], 2.4 ± 0.19 mM in series [5] and 4.2 ± 0.3 mM in [6].
`O=P(O)(O)OP(=O)(O)O` [PPi]: the IC50 in series [7] stood at 4 ± 0.28 mM; in series [8], 3.3 ± 0.06 mM.

B1: EhACK (Entamoeba histolytica acetate kinase) (Entamoeba histolytica HM-1:IMSS) (protein)
chain: MSNVLIFNVGSSSLTYKVFCSDNIVCSGKSNRVNVTGTEKPFIEHHLNGQIIKIETPILNHPQAAKLIIQFLKENHISIAFVGHRFVHGGSYFKKSAVIDEVVLKELKECLPLAPIHNPSSFGVIEISMKELPTTRQYVAIDTAFHSTISQAERTYAIPQPYQSQYLKFGFHGLSYEYVINSLKNVIDVSHSKIIACHLGTGGSSCCGIVNGKSFDTSMGNSTLAGLVMSTRCGDIDPTIPIDMIQQVGIEKVVDILNKKSGLLGVSELSSDMRDILHEIETRGPKAKTCQLAFDVYIKQLAKTIGGLMVEIGGLDLLVFTDQMGLEVWQVRKAICDKMKFLGIELDDSLNEKSMGKKIEFLTMPSSKVQVCVAPNDEELVILQKGKELFQF
As to B1, in “purified protein [9]” (setting [14]), the Michaelis-Menten constant (Km) stood at 570 ± 30 µM, the kcat was 266 ± 12 s⁻¹ and the kcat/Km was determined as 467000 ± 44000 M⁻¹ s⁻¹. In the series “purified protein [10]”, the Km was determined as 14000 ± 1200 µM, the kcat was 196 s⁻¹ and the kcat/Km amounted to 14000 M⁻¹ s⁻¹. Also, in the series “purified protein [11]”, the Km worked out at 2100 ± 330 µM, the kcat was 0.9 ± 0.03 s⁻¹ and the kcat/Km turned out to be 440 ± 60 M⁻¹ s⁻¹.

B2: MtACK (Methanosarcina thermophila acetate kinase) (Methanosarcina thermophila) (protein)
chain: MKVLVINAGSSSLKYQLIDMTNESALAVGLCERIGIDNSIITQKKFDGKKLEKLTDLPTHKDALEEVVKALTDDEFGVIKDMGEINAVGHRVVHGGEKFTTSALYDEGVEKAIKDCFELAPLHNPPNMMGISACAEIMPGTPMVIVFDTAFHQTMPPYAYMYALPYDLYEKHGVRKYGFHGTSHKYVAERAALMLGKPAEETKIITCHLGNGSSITAVEGGKSVETSMGFTPLEGLAMGTRCGSIDPAIVPFLMEKEGLTTREIDTLMNKKSGVLGVSGLSNDFRDLDEAASKGNRKAELALEIFAYKVKKFIGEYSAVLNGADAVVFTAGIGENSASIRKRILTGLDGIGIKIDDEKNKIRGQEIDISTPDAKVRVFVIPTNEELAIARETKEIVETEVKLRSSIPV
On to B2, for which, in the series “purified protein [12]”, the Michaelis constant (Km) turned out to be 20000 ± 300 µM, the catalytic constant (kcat) is 789 s⁻¹ and the specificity constant (kcat/Km) came out at 39000 M⁻¹ s⁻¹. Further, in the series “purified protein [9]” (setting [15]), the Km came to 1200 ± 90 µM, the kcat is 1550 ± 54 s⁻¹ and the kcat/Km worked out at 1.29e+06 ± 56000 M⁻¹ s⁻¹. Further, in “purified protein [13]”, the Michaelis constant (Km) stood at 1800 ± 130 µM, the kcat was 1915 ± 15 s⁻¹ and the kcat/Km amounted to 1.07e+06 ± 69000 M⁻¹ s⁻¹.

B3: MtACK (Methanosarcina thermophila acetate kinase) (Methanosarcina thermophila; G331Q/I332M) (protein)
chain: MKVLVINAGSSSLKYQLIDMTNESALAVGLCERIGIDNSIITQKKFDGKKLEKLTDLPTHKDALEEVVKALTDDEFGVIKDMGEINAVGHRVVHGGEKFTTSALYDEGVEKAIKDCFELAPLHNPPNMMGISACAEIMPGTPMVIVFDTAFHQTMPPYAYMYALPYDLYEKHGVRKYGFHGTSHKYVAERAALMLGKPAEETKIITCHLGNGSSITAVEGGKSVETSMGFTPLEGLAMGTRCGSIDPAIVPFLMEKEGLTTREIDTLMNKKSGVLGVSGLSNDFRDLDEAASKGNRKAELALEIFAYKVKKFIGEYSAVLNGADAVVFTAQMGENSASIRKRILTGLDGIGIKIDDEKNKIRGQEIDISTPDAKVRVFVIPTNEELAIARETKEIVETEVKLRSSIPV
For B3, in the series “purified protein [13]”, the Km came to 5700 ± 560 µM, the kcat was 12 ± 0.5 s⁻¹ and the specificity constant (kcat/Km) was determined as 2000 ± 140 M⁻¹ s⁻¹.

Broadly, the Km is the concentration of substrate that gives half-maximal velocity. Broadly, the kcat is the maximal rate divided by the concentration of active sites. Broadly, the kcat/Km is the turnover number divided by the Michaelis constant.
